Here are results for one substance from PMC6628566.

For the experiment, the target named is CX3CR1 (UniProt P49238).
Chain of UniProt P49238 (P49238 whole entry): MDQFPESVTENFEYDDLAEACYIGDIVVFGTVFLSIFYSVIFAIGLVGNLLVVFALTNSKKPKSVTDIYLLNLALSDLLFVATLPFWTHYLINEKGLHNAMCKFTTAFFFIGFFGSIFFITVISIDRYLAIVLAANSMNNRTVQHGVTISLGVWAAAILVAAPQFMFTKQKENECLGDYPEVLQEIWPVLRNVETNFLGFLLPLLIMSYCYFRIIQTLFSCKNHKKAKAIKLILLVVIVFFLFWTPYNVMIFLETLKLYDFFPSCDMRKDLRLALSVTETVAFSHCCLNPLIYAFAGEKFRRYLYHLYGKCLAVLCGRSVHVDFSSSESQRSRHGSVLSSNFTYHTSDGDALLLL

On to “chemokine domain-only peptide of fractalkine (ckFKN) (domain or fragment)”, for which the fold decrease in receptor binding affinity against sFKN worked out at 10 fold.
